The source of these data is article PMC4521999 (Nature, 2015).

As a reminder, the Kd is the equilibrium constant for the complex coming apart. The IC50 is the point on the concentration scale where inhibition reaches its midpoint. High values mean weaker potency in that assay, low ones greater potency in that assay.

The target of one assay is rhodopsin (UniProt P02699). Particulars: cited from earlier work.
Assay [1] has as its target T1, His8-MBP-rhodopsin E113Q/M257Y (in N2C/N282C) (human, UniProt P08100 1-348, N2^NtermC | N282^ECL3C | E113^3.28Q | M257^6.40Y). In words: AlphaScreen or HTRF.
Assay [2] deals with WT rhodopsin (1–321)-TEV site-tTA (Tango construct) (human, UniProt P08100 1-321, N2^NtermC | N282^ECL3C). Description: Tango assay.
For assay [3], the target named is E113Q/M257Y rhodopsin (1–321)-TEV site-tTA (Tango construct) (human, UniProt P08100 1-321, N2^NtermC | N282^ECL3C | E113^3.28Q | M257^6.40Y). Description: Tango assay.
Assay [4] addresses T1, His8-MBP-rhodopsin E113Q/M257Y (in …). Description: pull-down.

Where a chain is given by its changes, count along the chain named. Numbers in names are those of the source.

For arrestin (from UniProt P10523), the Kd with rhodopsin is 50 nM.

B1: GαCT peptide, a high affinity peptide variant of the C-terminus of G-transducin (Gt) (peptide)
peptide: TGGRVLEDLKSCGLF
For the molecule B1, in assay [1], half-maximal inhibition (IC50) was put at 700 nM.

B2: untagged 3A_arrestin (residues 10–392) (domain or fragment, mouse, UniProt P20443 10-392, looked up)
chain: SHVIFKKVSRDKSVTIYLGKRDYVDHVSQVEPVDGVVLVDPELVKGKKVYVTLTCAFRYGQEDIDVMGLTFRRDLYFSRVQVYPPVGAMSVLTQLQESLLKKLGDNTYPFLLTFPDYLPCSVMLQPAPQDVGKSCGVDFEVKAFASDITDPEEDKIPKKSSVRLLIRKVQHAPPEMGPQPSAEASWQFFMSDKPLNLSVSLSKEIYFHGEPIPVTVTVTNNTDKVVKKIKVSVEQIANVVLYSSDYYVKPVASEETQEKVQPNSTLTKTLVLVPLLANNRERRGIALDGKIKHEDTNLASSTIIKEGIDRTVMGILVSYHIKVKLTVSGFLGELTSSEVATEVPFRLMHPQPEDPAKESVQDENAAAEEFARQNLKDTGENTE
B2: in assay [1], half-maximal inhibition (IC50) required 15 nM.

B3: WT arrestin (10–392)-TEV protease (Tango construct) (domain or fragment, mouse, UniProt P20443 10-392, looked up)
chain: B2 chain with A365L, A366V, A367F
With B3, in assay [2], the “fold increase of binding with all-trans-retinal” value was around 3 fold.

B4: 3A_arrestin (10–392)-TEV protease (Tango construct) (domain or fragment, mouse, UniProt P20443 10-392, looked up)
chain: B2 chain
With B4, the “fold increase of binding signal with all-trans-retinal” value in assay [3] is around 5 fold.

B5: 35S-labelled 3A_arrestin (L374A/V375A/F376A, in vitro translated) (natural protein, mouse, UniProt P20443 1-403, looked up)
chain: MAACGKTNKSHVIFKKVSRDKSVTIYLGKRDYVDHVSQVEPVDGVVLVDPELVKGKKVYVTLTCAFRYGQEDIDVMGLTFRRDLYFSRVQVYPPVGAMSVLTQLQESLLKKLGDNTYPFLLTFPDYLPCSVMLQPAPQDVGKSCGVDFEVKAFASDITDPEEDKIPKKSSVRLLIRKVQHAPPEMGPQPSAEASWQFFMSDKPLNLSVSLSKEIYFHGEPIPVTVTVTNNTDKVVKKIKVSVEQIANVVLYSSDYYVKPVASEETQEKVQPNSTLTKTLVLVPLLANNRERRGIALDGKIKHEDTNLASSTIIKEGIDRTVMGILVSYHIKVKLTVSGFLGELTSSEVATEVPFRLMHPQPEDPAKESVQDENAAAEEFARQNLKDTGENTEGKKDEDAGQDE
modifications: 35S-methionine
As to B5, in assay [4], the “fold of the binding of WT arrestin to WT rhodopsin, with all-trans-retinal” value is around 60 fold.
